According to article PMC6775164:
“And” between values parts separate entries of the source, which are not always exact repeats. Equal values may be shown once.

How the values were obtained:
[1] = target: P74-26 decoration protein (gene product 87) (bacteriophage P74-26); experiment: cryo-EM structure; single-particle reconstruction of the capsid of purified P74-26 virions with icosahedral symmetry imposed; virions in 50 mM Tris pH 8.0, 10 mM NaCl, 10 mM MgCl2; 2.8 Å (0.143 FSC)
[2] = target: P74-26 major capsid protein (gene product 86) (bacteriophage P74-26); experiment: as above

| Substance | stoichiometry N [1] | stoichiometry N [2] |
| --- | --- | --- |
| P74-26 decoration protein (gene product 87) (natural protein) | 3 |  |
| P74-26 major capsid protein (gene product 86) (natural protein) |  | 5 and 6 |
